Read-outs that look alike come from different tables or passages of the source.
Columns and labels:
Assay in all cases: ELISA, supernate
[1] = biological target: first-generation H3 LAH construct H3frThrST (Influenza A virus (H3))
[2] = biological target: first-generation H1 LAH construct H1frThrST (Influenza A virus (H1))
[3] = biological target: first-generation H1 LAH construct H1frThrST (Influenza A virus (H1)); remark: listed apart in the source

B1: mAb 5I17 (antibody, V domains shown)
VH: EVQLVESGGGVVQPGRSLRLSCAASGFSFSNYAMHWVRQAPGKGLEWVALISFDGSDKYYADSVKGRFTMSRDNSKNTLYLQMNSLRAEDTAVYYCARDEPYCGGDCFAFDVWGQGTMVTVS
VL: DIQLTQSPSSLSASAGDRVSMTCRASQIISSSLNWYQQKPGKAPKLLIYAASNLQSGVPSRFSGSGSGTDFTLTISSLQPEDFATYYCQQSYSTPPELTFGGGTKVDIKR
**Q.** How did the OD [1] turn out when B1 was run?
**A.** 0.07 OD

**Q.** What about the OD [2] of the same binder?
**A.** 0.07 OD

**Q.** What about the OD [3] of the same binder?
**A.** 0.078 OD
